The source of these data is patent publication US12416034B2, “Recombinant production of steviol glycosides” (EVOLVA SA, priority 2011, dated 2025).

The subject of one series is EUGT11. The experiment in a line: Inhibition studies of RebD production. The class given is biochemical, Oryza sativa. The settings on record: Steviva 500 μg/ml, UDP 500 μM; around 30 μM without any addition. The protocol:
Experiments were conducted to determine if factors such as sucrose, fructose, UDP, product (RebD) and impurities in the less pure Stevia extracts raw materials inhibited the extent of the conversion of steviol glycoside substrates to RebD. In a standard reaction mixture, excess of the potential inhibitors (sucrose, fructose, UDP, RebD, or a commercial blend of steviol glycosides (Steviva, Steviva Brands, Inc., Portland, OR)) were added. Following incubation, RebD-production was quantified. […] The RebD that was produced was less than 7 μM. This inhibition can be alleviated in the in vivo or in vitro reactions for RebD production, by including an UDP recycling system to UDP-glucose, either by yeast or by an added SUS (sucrose synthase enzyme) in conjunction with sucrose.

Series [1] is described as follows: Denaturation temperature by differential scanning calorimetry (DSC). The format is physicochemical. The settings on record: 6HIS-purified enzymes, 91D2e-b GST-purified. The protocol:
To assess the thermal stability of EUGT11 and to compare it with the other UGTs in the steviol glycosylation pathway, denaturation temperatures of the proteins were determined using differential scanning calorimetry (DSC). Use of DSC thermograms to estimate denaturation temperatures, TD, is described, for example, by E. Freire in Methods in Molecular Biology 1995, Vol. 40 191-218. DSC was performed (using 6HIS-purified EUGT11, yielding an apparent TD of 39° C.; while when GST-purified 91D2e-b was used, the measured TD was 79° C. For reference, the measured TD when using 6HIS-purified UGT74G1, UGT76G1 and UGT85C2 was 86° C. in all cases. One of skill in the art will recognize that enzyme immobilization or addition of thermal protectants can be added to the reactions to improve stability of the protein. Non-limiting examples of thermal protectants include trehalose, glycerol, ammonium sulphate, betaine, trimethylamine oxide, and proteins.

A short description of series [2]: Codon optimized UGT cell lysate assay, 13-SMG as substrate. The settings on record: 0.25 mM 13-SMG, 24 hours, 30° C. The class given is biochemical. The protocol: (§1) The wild-type, DNA 2.0, and GeneArt sequences were assayed for in vitro activity to compare reactivity on substrates in the steviol glycosides pathway. UGTs were inserted in high copy (2p) vectors and expressed from a strong constitutive promoter (GPD1) (vectors P423-GPD, P424-GPD, P425-GPD, and P426-GPD). The plasmids were transformed individually into the universal Watchmaker strain, EFSC301 (described in Example 3 of WO2011/153378) and assays were carried out using cell lysates prepared from equal amount of cells (8 OD units). For the enzymatic reactions, 6 μL of each cell lysate were incubated in a 30 μL reaction with 0.25 mM steviol (final concentration) to test UGT74G1 and UGT85C2 clones, and with 0.25 mM 13-SMG (13SMG) (final concentration) to test 76G1 and 91D2e UGTs. Assays were carried out for 24 hours at 30° C. Prior to LC-MS analysis, one volume of 100% DMSO was added to each reaction, samples were centrifuged at 16000 g, and the supernatants analysed.

Series [3] has as its system S. cerevisiae strain BY4741. Kind of series: Steviol-feeding experiment of S. cerevisiae strain BY4741. The class given is cell-based. The settings on record: co-expressed with wild type UGT74G1, steviol feeding. The protocol:
Further experiments were conducted to determine if the codon-optimized UGT85C2 could reduce 19-SMG accumulation and increase rubusoside and higher glycosylated steviol glycosides production. The production of 19-SMG and rubusoside were analysed in a steviol-feeding experiment of S. cerevisiae strain BY4741 expressing the wild type UGT74G1 as well as the codon-optimized UGT85C2 from high copy (2p) vectors under strong constitutive promoter (GPD1) (vectors P426-GPD and P423-GPD, respectively). Whole culture samples (without cell removal) were taken and boiled in an equal volume of DMSO for total glycosides levels. Intracellular concentrations reported were obtained by pelleting cells, and resuspending in 50% DMSO to the volume of the original culture sample taken, followed by boiling. The “total” glycosides level and the normalized intracellular level then were measured using LC-MS. Using wild type UGT74G1 and wild type UGT85C2, approximately 13.5 μM rubusoside was produced in total with a maximum normalized intracellular concentration of about 7 μM. In contrast, when wild type UGT74G1 and codon-optimized UGT85C2 were used, a maximum of 26 μM rubusoside was produced, or approximately double of what was produced using the wild type UGT85C2. Additionally, the maximum normalized intracellular concentration of rubusoside was 13 μM, again an approximate doubling of what was produced using wild type UGT85C2. […] Consequently, about 10 μM less total 19-SMG was measured for the codon-optimized UGT85C2.

Series [4] can be described thus: Codon optimized UGT cell lysate assay, steviol as substrate. The format is biochemical. The settings on record: 0.25 mM steviol, 24 hours, 30° C. As for the experimental part: as §1
Series [5] can be described thus: Screening by LC-MS of E. coli lysates, rubusoside as substrate. The format is biochemical. The protocol:
(§2) To analyze the approximately 1600 mutant clones of UGT91D2e, the E. coli transformants were grown overnight at 30° C. in 1 ml of NZCYM containing ampicillin (100 mg/1) and chloramphenicol (33 mg/1), in 96-well format. The next day, 150 μl of each culture was inoculated into 3 ml NZCYM containing ampicillin (100 mg/1), chloramphenicol (33 mg/1), arabinose 3 mM, IPTG 0.1 mM and ethanol 2% v/v, in 24-well format, and incubated at 20° C. and 200 rpm for ˜20 h. The following day, cells were spun down and pellets were resuspended in 100 μl of lysis buffer containing 10 mM Tris-HCl pH 8, 5 mM MgCl2, 1 mM CaCl2) and complete mini protease inhibitor EDTA-free (3 tablets/100 ml) (Hoffmann-La Roche, Basel, Switzerland) and frozen −80° C. for at least 15 minutes to promote cell lysis. […] In each case, the resulting compounds, stevioside or rebaudioside D (rebD), were measured by LC-MS. Results were analyzed in comparison with the stevioside or rebD produced by the lysates expressing the corresponding controls (91D2e, 91D2e-b, EUGT11 and the empty plasmid). […]
(§3) Half of the 1600 clones and the corresponding controls were assayed for their capacity to glycosylate rubusoside and rebaudiosideA. Stevioside and RebD were quantified by LC-MS. […]

Series [6] can be described thus: In vitro transcribed and translated UGTs incubated with steviol, LC-MS. The format is biochemical. As for the experimental part: (§4) EUGT11 was produced by in vitro transcription and translation, and incubated with various substrates in the RebD pathway. Similar experiments were carried out using in vitro transcribed and translated UGT91D2e. […] Compounds 1-3 were identified solely by mass and expected retention time. The numbers shown in FIG. 3 are the average peak height of the indicated steviol glycoside obtained from a LC-MS chromatogram, and, although not quantitative, can be used to compare the activity of the two enzymes. […] Both enzymes were able to convert steviol 19-O-monoglucoside (SMG) to compound 1, with EUGT11 being about ten times more efficient than UGT91D2e at converting 19-SMG to compound 1.

Series [7] can be described thus: Screening by LC-MS of E. coli lysates, rebaudioside A as substrate. The format is biochemical. The settings on record: RebA substrate. As for the experimental part:
as §2, §3

Series [8] is described as follows: In vitro transcribed and translated UGTs incubated with RebA and UDP-glucose, LC-MS. The class given is biochemical. The settings on record: LC-MS chromatograms, FIG. 4. The protocol: In vitro transcription and translation of these genes was performed, and the resulting UGTs incubated with RebA and UDP-glucose. Following incubation, the reactions were analyzed by LC-MS. […] See LC-MS chromatograms in FIG. 4. As shown in the left panel of FIG. 4, UGT91D2e produced a trace amount of RebD when RebA was used as the feedstock.
as §4
Both enzymes were able to convert RebA to RebD. However, EUGT11 was approximately 30 times better at converting RebA to RebD. Overall, it appears that EUGT11 produces more product than UGT91D2e in all reactions (with similar time, concentrations, temperature, and purity of enzyme) except the conversion of rubusoside to stevioside.

Series [9] can be described thus: In vitro transcribed and translated UGTs incubated with rubusoside, LC-MS. The format is biochemical. The protocol:
as §4
The left panel of FIG. 5 contains LC-MS chromatograms of the conversion of rubusoside to stevioside. The right panel of FIG. 5 contains chromatograms of the conversion of rubusoside to stevioside, to compound 2, and to compound 3 (RebE). Conversion of rubusoside to compound 3 requires two consecutive 1, 2-O-glycosylations at the 19- and 13-positions of steviol.

Consider `O=c1ccn([C@@H]2O[C@H](COP(=O)(O)OP(=O)(O)O)[C@@H](O)[C@H]2O)c(=O)[nH]1` [UDP], for which, in the series with EUGT11, the “RebD production in presence of potential inhibitor” value is given as “less than 7 μM”.

B1: UGT76G1: S. rebaudiana UGT, SEQ ID NO:7 (protein, listed as Stevia rebaudiana)
chain: MENKTETTVRRRRRIILFPVPFQGHINPILQLANVLYSKGFSITIFHTNFNKPKTSNYPHFTFRFILDNDPQDERISNLPTHGPLAGMRIPIINEHGADELRRELELLMLASEEDEEVSCLITDALWYFAQSVADSLNLRRLVLMTSSLFNFHAHVSLPQFDELGYLDPDDKTRLEEQASGFPMLKVKDIKSAYSNWQILKEILGKMIKQTKASSGVIWNSFKELEESELETVIREIPAPSFLIPLPKHLTASSSSLLDHDRTVFQWLDQQPPSSVLYVSFGSTSEVDEKDFLEIARGLVDSKQSFLWVVRPGFVKGSTWVEPLPDGFLGERGRIVKWVPQQEVLAHGAIGAFWTHSGWNSTLESVCEGVPMIFSDFGLDQPLNARYMSDVLKVGVYLENGWERGEIANAIRRVMVDEEGEYIRQNARVLKQKADVSLMKGGSSYESLESLVSYISSL
On to B1, for which the “denaturation temperature TD” value in [1] amounted to 86 °C. Besides, the “activity of GeneArt lysate as a percentage of the wild-type enzyme” value in series [2] is reported as 170%.

B2: UGT85C2: S. rebaudiana UGT, SEQ ID NO:3 (protein, listed as Stevia rebaudiana)
chain: MDAMATTEKKPHVIFIPFPAQSHIKAMLKLAQLLHHKGLQITFVNTDFIHNQFLESSGPHCLDGAPGFRFETIPDGVSHSPEASIPIRESLLRSIETNFLDRFIDLVTKLPDPPTCIISDGFLSVFTIDAAKKLGIPVMMYWTLAACGFMGFYHIHSLIEKGFAPLKDASYLTNGYLDTVIDWVPGMEGIRLKDFPLDWSTDLNDKVLMFTTEAPQRSHKVSHHIFHTFDELEPSIIKTLSLRYNHIYTIGPLQLLLDQIPEEKKQTGITSLHGYSLVKEEPECFQWLQSKEPNSVVYVNFGSTTVMSLEDMTEFGWGLANSNHYFLWIIRSNLVIGENAVLPPELEEHIKKRGFIASWCSQEKVLKHPSVGGFLTHCGWGSTIESLSAGVPMICWPYSWDQLTNCRYICKEWEVGLEMGTKVKRDEVKRLVQELMGEGGHKMRNKAKDWKEKARIAIAPNGSSSLNIDKMVKEITVLARN
Consider B2, for which, in series [1], the “denaturation temperature TD” value was 86 °C. In series [3], the “maximum intracellular concentration of 19-SMG” value was determined as 35 µM, the “maximum normalized intracellular concentration of rubusoside” value is listed as “about 7 μM” and the “rubusoside produced in total” value is “approximately 13.5 μM”. In addition, the “activity of GeneArt lysate as a percentage of the wild-type enzyme” value in series [4] is on record as 340%.

B3: UGT91D2e: UGT91D2e polypeptide from Stevia rebaudiana, SEQ ID NO:5 (protein, listed as Stevia rebaudiana)
chain: MATSDSIVDDRKQLHVATFPWLAFGHILPYLQLSKLIAEKGHKVSFLSTTRNIQRLSSHISPLINVVQLTLPRVQELPEDAEATTDVHPEDIPYLKKASDGLQPEVTRFLEQHSPDWIIYDYTHYWLPSIAASLGISRAHFSVTTPWAIAYMGPSADAMINGSDGRTTVEDLTTPPKWFPFPTKVCWRKHDLARLVPYKAPGISDGYRMGLVLKGSDCLLSKCYHEFGTQWLPLLETLHQVPVVPVGLLPPEIPGDEKDETWVSIKKWLDGKQKGSVVYVALGSEVLVSQTEVVELALGLELSGLPFVWAYRKPKGPAKSDSVELPDGFVERTRDRGLVWTSWAPQLRILSHESVCGFLTHCGSGSIVEGLMFGHPLIMLPIFGDQPLNARLLEDKQVGIEIPRNEEDGCLTKESVARSLRSVVVEKEGEIYKANARELSKIYNDTKVEKEYVSQFVDYLEKNARAVAIDHES
As for B3, the “stevioside formed by lysates” value in series [5] is on record as “approximately 0.5 μM”. Besides, the “use of steviol as a substrate” value in series [6] is on record as “not able to use steviol as a substrate”. In addition, in [7], the “RebD formed by lysates” value is approximately 1 µM. For the same molecule, the “amount of RebD produced when RebA was used as the feedstock” value in [8] is on record as “trace amount”. Also, the “amount of compound 3 (RebE) produced from rubusoside” value in series [9] is recorded as “trace amount”. Also, the “activity of GeneArt lysate as a percentage of the wild-type enzyme” value in [2] was found to be 130%.
